Reference: US20180289832A1 (MAGENTA THERAPEUTICS, published 2018)

Columns and labels:
[1] = molecular target: T1, human CD137 (hCD137) stably over-expressed on Jurkat cells (human, UniProt Q07011 24-255); experiment: flow cytometry on Jurkat cells stably over-expressing hCD137; titration of the primary antibody 4 h at 4 °C, secondary anti-mouse AF488, gMFI
T1 construct: also called 4-1BB; TNFRSF9
Experimental: (§1) Jurkat cells (i.e., an immortalized human T lymphocyte cell line) characterized by stable, over-expression of hCD137 were plated at 20,000 cells/well and stained with a titration of primary murine anti-CD137 antibody BBK2 (BBK2-mIgG1) for 4 hours at 4° C. Secondary anti-mouse AF488 stain, at a constant amount, was added for 30 minutes at 4° C. After washing, plates were run on a flow cytometer and binding of BBK2-mIgG1 (and the negative control, i.e., mIgG1) was determined based on geometric mean fluorescence intensity in the AF488 channel.

[2] = molecular target: T1, human CD137 (hCD137) stably …; experiment: flow cytometry on Jurkat cells over-expressing hCD137; antibody titration 4 h at 4 C, anti-mouse AF488 secondary, geometric MFI
Experimental: as §1

T1 sequence (Q07011 24-255 limits assumed): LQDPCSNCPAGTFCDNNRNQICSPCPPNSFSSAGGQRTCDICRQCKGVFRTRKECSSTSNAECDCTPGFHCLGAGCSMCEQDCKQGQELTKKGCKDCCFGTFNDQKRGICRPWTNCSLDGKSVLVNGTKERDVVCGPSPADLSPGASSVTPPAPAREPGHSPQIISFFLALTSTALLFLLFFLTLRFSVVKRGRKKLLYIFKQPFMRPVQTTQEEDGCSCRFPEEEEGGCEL

B1: murine anti-CD137 antibody BBK2 (BBK2-mIgG1) (antibody, V domains shown)
VH: QVQLQQPGAELVRPGASVKLSCKASGYTFTSYWINWVKQRPGQGLEWIGNIYPSDSYTNYNQKFKDKATLTVDKSSNTVYMQLNSPTSEDSAVYYCTRNGVEGYPHYYAMEYWGQGTSVTVSS
VL: DIQMTQTTSALSASLGDRVTIGCRASQDLSNHLYWYQQKPDGTVKLLIYYTSRLHSGVPSRFSGSGSGTDYSLTIRNLEQEDVATYFCQQGYTLPYTFGGGTKLEIK
notes: Mouse monoclonal IgG1, kappa (Thermo Fisher); also called BBK-mIgG1; murine BBK2
EC50 [1]: 0.035 nM
EC50 [2]: 35 µM
